Data as given in US20230265187A1.

Experiments:
[1] = target: human TIGIT on Jurkat cells (TIGIT/NFAT reporter Jurkat cells, BPS Bioscience #60538; Promega TIGIT Effector Cells) (human) (UniProt Q495A1); assay: cell-based or functional assay
[2] = target: human TIGIT on Jurkat cells (TIGIT/NFAT reporter Jurkat cells, BPS Bioscience #60538; Promega TIGIT Effector Cells) (human) (UniProt Q495A1); assay: flow cytometry, TIGIT/NFAT Jurkat cells, 10 ug/ml

Chain of human TIGIT on Jurkat cells (TIGIT/NFAT reporter Jurkat cells, BPS Bioscience #60538; Promega TIGIT Effector Cells) (human) (Q495A1 22-244): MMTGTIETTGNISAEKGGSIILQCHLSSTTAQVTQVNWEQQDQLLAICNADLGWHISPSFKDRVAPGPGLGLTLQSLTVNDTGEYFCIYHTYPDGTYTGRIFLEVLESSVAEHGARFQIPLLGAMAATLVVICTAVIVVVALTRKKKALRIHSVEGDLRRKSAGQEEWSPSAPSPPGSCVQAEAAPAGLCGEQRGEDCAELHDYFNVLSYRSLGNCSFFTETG

max. signal (% of 22G2) [1]: 116 % of 22G2 | MFI [2]: 10700 MFI
B1: 43586p1.2.F6 (scFv, V domains shown)
VH: EVQLLESGEGLVQPGGSLRLSCAASGFTFTSYLMSWVRQAPGKGLEWVSTITWDGDRTYYADSVKGRFTISRDNSKNTLYLQMNSLRVGDTAVYYCAKHWTVFQYGMDVWGQGTTVTVSS
VL: QSVLTQPASASGTPGQRVTISCSGTISNIETKYVSWYQQLPGTAPKLLIYGNHQRPSGVPDRFSGSKSGTSASLAISGLQSEDEADYYCASWENDLKSWVFGGGTKLTVL
